Assay results reported in patent US5684146.

How the values were obtained:
[1] = target: haemagglutinin (HA) of human influenza A type virus strain A2/Aichi/2/68 (H3N2 subtype) (human influenza A type virus, H3N2 subtype, strain A2/Aichi/2/68) (UniProt P03437)
[2] = target: haemagglutinin (HA) of human influenza A type virus strain A/PR/8/34 (H1N1 subtype) (human influenza A type virus, H1N1 subtype, strain A/PR/8/34) (UniProt P03452)
[3] = target: haemagglutinin (HA) of human influenza A type virus strain A/Okuda/57 (H2N2 subtype) (human influenza A type virus, H2N2 subtype, strain A/Okuda/57)
[4] = target: haemagglutinin (HA) of human influenza A type virus strain A2/Aichi/2/68 (H3N2 subtype) (human influenza A type virus, H3N2 subtype, strain A2/Aichi/2/68) (UniProt P03437); remark: listed apart in the source
[5] = target: haemagglutinin (HA) of human influenza A type virus strain A/PR/8/34 (H1N1 subtype) (human influenza A type virus, H1N1 subtype, strain A/PR/8/34) (UniProt P03452); remark: listed apart in the source
[6] = target: haemagglutinin (HA) of human influenza A type virus strain A/Kaizuka/2/65 (H2N2 subtype) (human influenza A type virus, H2N2 subtype, strain A/Kaizuka/2/65)
[7] = target: haemagglutinin (HA) of human influenza A type virus strain A/Okuda/57 (H2N2 subtype) (human influenza A type virus, H2N2 subtype, strain A/Okuda/57); remark: listed apart in the source
[8] = target: haemagglutinin (HA) of human influenza A type virus strain A/Suita/1/89 (H1N1 subtype) (human influenza A type virus, H1N1 subtype, strain A/Suita/1/89)
[9] = target: haemagglutinin (HA) of human influenza A type virus strain A/Sichuan/2/87 (H3N2 subtype) (human influenza A type virus, H3N2 subtype, strain A/Sichuan/2/87)
[10] = target: haemagglutinin (HA) of human influenza A type virus strain A/Bangkok/10/83 (H1N1 subtype) (human influenza A type virus, H1N1 subtype, strain A/Bangkok/10/83)
[11] = target: haemagglutinin (HA) of human influenza A type virus strain A/Yamagata/120/86 (H1N1 subtype) (human influenza A type virus, H1N1 subtype, strain A/Yamagata/120/86)
[12] = target: haemagglutinin (HA) of human influenza A type virus strain A1/FM/1/47 (H1N1 subtype) (human influenza A type virus, H1N1 subtype, strain A1/FM/1/47)
[13] = target: haemagglutinin (HA) of human influenza A type virus strain A/Izumi/5/65 (H2N2 subtype) (human influenza A type virus, H2N2 subtype, strain A/Izumi/5/65)
[14] = target: haemagglutinin (HA) of human influenza A type virus strain A/Suita/1/90 (H3N2 subtype) (human influenza A type virus, H3N2 subtype, strain A/Suita/1/90)
[15] = target: haemagglutinin (HA) of human influenza A type virus strain A/Adachi/2/57 (H2N2 subtype) (human influenza A type virus, H2N2 subtype, strain A/Adachi/2/57)
[16] = target: haemagglutinin (HA) of human influenza A type virus strain A/Fukuoka/C29/85 (H3N2 subtype) (human influenza A type virus, H3N2 subtype, strain A/Fukuoka/C29/85)
[17] = target: haemagglutinin (HA) of human influenza A type virus strain A/Ibaraki/1/90 (H3N2 subtype) (human influenza A type virus, H3N2 subtype, strain A/Ibaraki/1/90)
[18] = target: haemagglutinin (HA) of human influenza A type virus strain A/Kitakyushu/159/93 (H3N2 subtype) (human influenza A type virus, H3N2 subtype, strain A/Kitakyushu/159/93)
[19] = target: haemagglutinin (HA) of human influenza A type virus strain A/Kumamoto/1/65 (H2N2 subtype) (human influenza A type virus, H2N2 subtype, strain A/Kumamoto/1/65)
[20] = target: haemagglutinin (HA) of human influenza A type virus strain A/Osaka/930/88 (H1N1 subtype) (human influenza A type virus, H1N1 subtype, strain A/Osaka/930/88)
[21] = target: influenza B type virus strain B/Nagasaki/1/87 (influenza B type virus, strain B/Nagasaki/1/87)

fused polypeptide of scFv of C179 with two Fc binding domain-like structures of protein A
0.074: Absorbance at 492 nm (absorbance at 492 nm) [1]
0.303: Absorbance at 492 nm (absorbance at 492 nm) [3]
0.15: Absorbance at 492 nm (absorbance at 492 nm) [2]

B1: monoclonal antibody C179 (antibody, V domains shown)
VH: EVKLVESGGGLVQPGGSLRLSCGTSGFTLTDDYMTWVRQPPGKALEWLGFIRDRANGYTTEYSASVKGRFTISRDNSQSIVYLQMNTLRVEDSATYYCARPKGYFPYAMDYWGQGT
VL: DIQMTQSPASQSASLGESVTITCLASQTIGTWLAWYQQKPGKSPQLLIYAATSLADGVPSRFSGSGSGTKFSFKISSLQAEDFVSYYCQQLYSTPWTF
2048: Neutralization activity (focus reduction neutralization test, antibody titer) [6]
410000: Staining activity (antibody titer) [6] | Staining activity (antibody titer) [8] | Staining activity (antibody titer) [11] | Staining activity (antibody titer) [12] | Staining activity (antibody titer) [13] | Staining activity (antibody titer) [19] | Staining activity (antibody titer) [20]
1.64e+06: Staining activity (antibody titer) [7] | Staining activity (antibody titer) [10] | Staining activity (antibody titer) [15]
< 32: HI activity (haemagglutination inhibition, antibody titer) (dilution ratio of the ascites fluid) [4] | HI activity (haemagglutination inhibition, antibody titer) (dilution ratio of the ascites fluid) [5] | HI activity (haemagglutination inhibition, antibody titer) (dilution ratio of the ascites fluid) [6] | HI activity (haemagglutination inhibition, antibody titer) (dilution ratio of the ascites fluid) [7] | HI activity (haemagglutination inhibition, antibody titer) (dilution ratio of the ascites fluid) [8] | HI activity (haemagglutination inhibition, antibody titer) (dilution ratio of the ascites fluid) [9] | HI activity (haemagglutination inhibition, antibody titer) (dilution ratio of the ascites fluid) [10] | HI activity (haemagglutination inhibition, antibody titer) (dilution ratio of the ascites fluid) [11] | HI activity (haemagglutination inhibition, antibody titer) (dilution ratio of the ascites fluid) [12] | HI activity (haemagglutination inhibition, antibody titer) (dilution ratio of the ascites fluid) [13] | HI activity (haemagglutination inhibition, antibody titer) (dilution ratio of the ascites fluid) [14] | HI activity (haemagglutination inhibition, antibody titer) (dilution ratio of the ascites fluid) [15] | HI activity (haemagglutination inhibition, antibody titer) (dilution ratio of the ascites fluid) [16] | HI activity (haemagglutination inhibition, antibody titer) (dilution ratio of the ascites fluid) [17] | HI activity (haemagglutination inhibition, antibody titer) (dilution ratio of the ascites fluid) [18] | HI activity (haemagglutination inhibition, antibody titer) (dilution ratio of the ascites fluid) [19] | HI activity (haemagglutination inhibition, antibody titer) (dilution ratio of the ascites fluid) [20] | HI activity (haemagglutination inhibition, antibody titer) (dilution ratio of the ascites fluid) [21]
< 100: Staining activity (antibody titer) [9] | Staining activity (antibody titer) [14] | Staining activity (antibody titer) [16] | Staining activity (antibody titer) [17] | Staining activity (antibody titer) [18] | Staining activity (antibody titer) [21]
< 16: Neutralization activity (focus reduction neutralization test, antibody titer) [4] | Neutralization activity (focus reduction neutralization test, antibody titer) [9] | Neutralization activity (focus reduction neutralization test, antibody titer) [14] | Neutralization activity (focus reduction neutralization test, antibody titer) [16] | Neutralization activity (focus reduction neutralization test, antibody titer) [17] | Neutralization activity (focus reduction neutralization test, antibody titer) [18] | Neutralization activity (focus reduction neutralization test, antibody titer) [21]
512: Neutralization activity (focus reduction neutralization test, antibody titer) [5] | Neutralization activity (focus reduction neutralization test, antibody titer) [10] | Neutralization activity (focus reduction neutralization test, antibody titer) [12] | Neutralization activity (focus reduction neutralization test, antibody titer) [20]
1024: Neutralization activity (focus reduction neutralization test, antibody titer) [7] | Neutralization activity (focus reduction neutralization test, antibody titer) [8] | Neutralization activity (focus reduction neutralization test, antibody titer) [11] | Neutralization activity (focus reduction neutralization test, antibody titer) [13] | Neutralization activity (focus reduction neutralization test, antibody titer) [15] | Neutralization activity (focus reduction neutralization test, antibody titer) [19]
